The target of assay [1] is purified full-length human HtrA1 (human, UniProt Q92743 23-480). Kind of assay: cell-based or functional assay.
For assay [2], the target named is purified full-length murine HtrA1 (murine, UniProt Q9R118 23-480). Kind of assay: cell-based or functional assay.
Assay [3] concerns the target T1, murine HtrA4 protease domain (murine, UniProt A2RT60 160-371, limits assumed).
T1 construct: domain: PD (protease domain); also called muHtrA4-PD; murine HtrA4-PD
T1 sequence (looked up): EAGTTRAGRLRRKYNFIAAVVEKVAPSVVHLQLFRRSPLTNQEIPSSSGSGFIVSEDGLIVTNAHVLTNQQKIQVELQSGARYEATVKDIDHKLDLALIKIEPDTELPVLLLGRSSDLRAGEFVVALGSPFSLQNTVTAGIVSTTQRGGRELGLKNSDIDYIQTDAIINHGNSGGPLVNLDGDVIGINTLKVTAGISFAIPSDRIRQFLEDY
The assay is described as follows: ELISA, hybridoma clone. In general terms: ELISA stands for enzyme-linked immunosorbent assay.

Assay [4] concerns the target T2, His-tagged recombinant murine HtrA1 protease domain (murine, UniProt Q9R118 156-367).
T2 construct: His-tagged protease domain; also called muHtrA1-PD-His; muHtrA1-PD
The assay is described as follows: phage competition ELISA (Fab on phage, HtrA1 in solution). Here is the method:
(§1) MAXISORP™ microliter plates were coated with human HtrA1-PD-His at 2 μg/ml in PBS for 2 h and then blocked with PBST buffer (0.5% BSA and 0.05% TWEEN®20 in PBS) for 1 h at room temperature. Phage purified from culture supernatants were incubated with serially-diluted human or murine HtrA1 in PBST buffer in a tissue-culture microtiter plate for 1 h, after which 80 μl of the mixture was transferred to human HtrA1-coated wells for 15 min to capture unbound phage. The plate was washed with PBT buffer (0.05% TWEEN®20 in PBS), and HRP-conjugated anti-M13 antibody (Amersham Pharmacia Biotech) was added (1:5000 in PBST buffer) for 40 min. The plate was washed with PBT buffer and developed by adding tetramethylbenzidine substrate (Kirkegaard and Perry Laboratories, Gaithersburg, Md.). The absorbance at 450 nm was plotted as a function of target concentration in solution to determine phage IC50.

The target in assay [5] is T3, His-tagged human HtrA1 protease domain (human, UniProt Q92743 161-367).
T3 construct: His-tagged protease domain; also called huHtrA1-PD-His; huHtrA1-PD
T3 sequence (Q92743 other isoform, or with tags, fused parts or gaps limits assumed): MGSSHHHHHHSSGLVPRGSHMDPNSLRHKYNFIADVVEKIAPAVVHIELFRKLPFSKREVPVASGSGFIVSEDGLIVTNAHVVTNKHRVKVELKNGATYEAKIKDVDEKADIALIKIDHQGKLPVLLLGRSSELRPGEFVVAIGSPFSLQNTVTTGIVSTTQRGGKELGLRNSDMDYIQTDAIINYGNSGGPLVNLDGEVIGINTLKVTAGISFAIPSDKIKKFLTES
The assay is described as above. Here is the method:
as §1

In assay [6] the target is T3, His-tagged human HtrA1 protease domain. Kind of assay: cell-based or functional assay.
The target in assay [7] is T2, His-tagged recombinant murine HtrA1 …. The assay is described as follows: SPR (BIACORE), Fab. The text has this: (§2) To address W91 oxidation in HVR-L3, 2 variants (LC-W91Y and LC-W91L) were generated and produced as Fabs for BIACORE™ SPR binding analysis.
(§3) To determine the binding affinity of anti-HtrA1 Fabs by single-cycle kinetics, (SPR) measurement with a BIACORE™ T100 instrument was used. Briefly, a series S sensor chip CM5 was activated with 1-ethyl-3-(3-dimethylamino-propyl)carbodiimide hydrochloride (EDC) and N-hydroxysuccinimide (NHS) reagents according to the supplier's instructions, and streptavidin (Pierce) was coupled to achieve approximately 2500 response units (RU), followed by blocking un-reacted groups with 1 M ethanolamine.
(§4) For kinetics measurements, biotinylated human or murine HtrA1-PD-His was first injected at 10 μl/min flow rate to capture approximately 150 RU at 3 different flow cells (FC), except for FC1 (which served as a reference), and then 5-fold serial dilutions of anti-HtrA1 Fab in HBS-P buffer (0.01M HEPES pH 7.4, 0.15 M NaCl, 0.005% surfactant P20) from low (0.48 nM) to high (300 nM) were injected (flow rate: 30 μl/min) one after the other in the same cycle with no regeneration between injections. The sensorgram was recorded and subject to reference and buffer subtraction before evaluating by BIACORE™ T100 Evaluation Software (version 2.0). Association rates (kₒₙ) and dissociation rates (koff) were calculated using a simple one-to-one Langmuir binding model. The equilibrium dissociation constant (KD) was calculated as the ratio koff/kₒₙ.
(In SPR one partner is held on a chip, and binding of the other changes the refractive index at the surface.)

Assay [8] has as its target T3, His-tagged human HtrA1 protease domain. The assay is described as follows: SPR (BIACORE), Fab.
Description: as §2, §3, §4

Assay [9] shares this target. The assay is described as follows: cell-based or functional assay. This is another data set of the same source.
Assay [10] has the same target. The assay is described as follows: BIACORE SPR analysis, Fab format. Here is the method: (§5) To determine the binding affinity of selected Fab variants for HtrA1, SPR measurement with a BIACORE™ T200 instrument was performed. Briefly, a series S sensor chip CM5 was activated with 1-EDC and NHS reagents according to the supplier's instructions, and anti-His antibody was coupled to achieve 200-300 response units (RU), then following by blocking un-reacted groups with 1 M ethanolamine. For kinetics measurements, approximately 5 nM of huHtrA1-PD-His was first injected at 10 μl/min flow rate to capture approximately 100 RU at 2 different flow cells (FC), except for FC1 (which served as a reference). Next, 5-fold serial dilutions of Fab in HBS-P buffer (0.01M HEPES pH 7.4, 0.15M NaCl, 0.005% surfactant P20) from low (0.8 nM) to high (50 nM) were injected (flow rate: 30 μl/min). The binding responses on HtrA1 were corrected by subtracting of RU from a blank flow cell. The sensorgram was recorded and subject to reference and buffer subtraction before evaluating by BIACORE® T200 Evaluation Software (version 2.0). Association rates (kₒₙ) and dissociation rates (koff) were calculated using a simple one-to-one Langmuir binding model. The equilibrium dissociation constant (KD) was calculated as the ratio of koff/kₒₙ.

The target is the same in assay [11]. Kind of assay: BIACORE SPR, Fab analyte, Human HtrA1-PD (N=2).
For assay [12] the target is unchanged. The assay is described as follows: SPR (BIACORE T200), huHtrA1-PD-His captured by anti-His, Fab injected. Here is the method:
as §5

Assay [13] has the same target. The description is as above. Here is the method:
These combination mutants included both a variant light chain and a variant heavy chain. BIACORE™ kinetic analysis was performed (as described below in Section C) using the combination mutants.
as §5
This is another data set of the same source.

Assay [14] has the same target. The assay is described as follows: BIACORE SPR, single-cycle kinetics; Fab analyte over captured human HtrA1.
For assay [15] the target is unchanged. The description is as above. This is another data set of the same source.
The target is the same in assay [16]. The assay is described as follows: BIACORE T200 SPR; Fab analyte over huHtrA1-PD-His captured by anti-His antibody.

purified full-length human HtrA1, sequence (Q92743 23-480): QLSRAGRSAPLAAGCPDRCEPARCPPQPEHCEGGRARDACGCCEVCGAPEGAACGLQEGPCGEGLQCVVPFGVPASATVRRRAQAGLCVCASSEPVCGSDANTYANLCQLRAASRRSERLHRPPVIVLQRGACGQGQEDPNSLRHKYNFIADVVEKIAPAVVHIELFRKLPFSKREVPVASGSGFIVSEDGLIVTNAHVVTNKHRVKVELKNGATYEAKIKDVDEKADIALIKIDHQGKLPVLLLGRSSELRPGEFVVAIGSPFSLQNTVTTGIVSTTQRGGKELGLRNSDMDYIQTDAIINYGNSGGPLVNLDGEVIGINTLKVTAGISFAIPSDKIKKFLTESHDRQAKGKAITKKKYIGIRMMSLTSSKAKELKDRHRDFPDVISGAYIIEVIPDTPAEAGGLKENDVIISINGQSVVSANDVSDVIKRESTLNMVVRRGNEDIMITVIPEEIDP

B1: anti-HtrA1 hybridoma antibody clone 19B12 (antibody, V domains shown)
VH: EVKLVESGGGLVEPGGSLKLACVASGFTFSSYIMSWVRQTPEKRLEWVAYISNGGGTTYYSDTIKGRFTISRDNAKNTLYLQMSTLKSEDTAIYFCARQNFRSDGSSMDYWGQGTAVTVSS
VL: NIVVTQSPASLAVSLGQRATISCRASESVDSYGKSFMHWYQQKPGQPPKLLIYLASKLESGVPARFSGSGSRTDFTLTIDPVEADDAATYYCQQNNEDPYTFGGGTKLEIK
notes: Murine mIgG2a, from hybridoma or recombinant from 293 cells; also called m19B12
Turning to B1, in [1], the “IC50, FRET blocking assay, recombinant antibody from 293 cells” value is about 1.2 nM and the “IC50, FRET-based blocking assay (H2-Opt cleavage)” value came out at 1.4 nM. Besides, in assay [2], the “IC50, FRET-based blocking assay (H2-Opt cleavage)” value was 1 nM. Besides, in [3], the binding result is on record as “no binding”.

B2: h15H6.v1 HC-A71R variant (Fab, V domains shown)
VH: EVQLVQSGAEVKKPGASVKVSCKASGYTFTDSEMHWVRQAPGQGLEWIGGVDPETDGAAYNQKFKGRATLTRDTSTSTAYLELSSLRSEDTAVYYCTRGYDYDYALDYWGQGTLVTVSS
VL: DIQMTQSPSSLSASVGDRVTITCRASSSVNFIHWYQQKPGKAPKPWISATSNLASGVPSRFSGSGSGTDFTLTISSLQPEDFATYYCQQWSSNPWTFGQGTKVEIK
notes: built as h15H6.v1
Consider B2, for which the binding result in [4] and in assay [5] was “binds” throughout.

B3: h15H6.v1 LC-W47L variant (Fab, V domains shown)
VH: EVQLVQSGAEVKKPGASVKVSCKASGYTFTDSEMHWVRQAPGQGLEWIGGVDPETDGAAYNQKFKGRATLTADTSTSTAYLELSSLRSEDTAVYYCTRGYDYDYALDYWGQGTLVTVSS
VL: DIQMTQSPSSLSASVGDRVTITCRASSSVNFIHWYQQKPGKAPKPLISATSNLASGVPSRFSGSGSGTDFTLTISSLQPEDFATYYCQQWSSNPWTFGQGTKVEIK
notes: its VL equals the VL of h15H6.v2, which carries LC-W47L as its only light chain change
For B3, the binding result in assay [4] and in [5] was “binds” throughout.

B4: h15H6.v1 LC-S49Y variant (Fab, V domains shown)
VH: EVQLVQSGAEVKKPGASVKVSCKASGYTFTDSEMHWVRQAPGQGLEWIGGVDPETDGAAYNQKFKGRATLTADTSTSTAYLELSSLRSEDTAVYYCTRGYDYDYALDYWGQGTLVTVSS
VL: DIQMTQSPSSLSASVGDRVTITCRASSSVNFIHWYQQKPGKAPKPWIYATSNLASGVPSRFSGSGSGTDFTLTISSLQPEDFATYYCQQWSSNPWTFGQGTKVEIK
notes: built as h15H6.v1
As for B4, the “fold reduction of binding against h15H6.v1” value in assay [4] and in assay [5] was about 10 fold each time.

B5: h15H6.v2 Fab (Fab, V domains shown)
VH: EVQLVQSGAEVKKPGASVKVSCKASGYTFTDSEMHWVRQAPGQGLEWIGGVDPETDGAAYNQKFKGRATITRDTSTSTAYLELSSLRSEDTAVYYCTRGYDYDYALDYWGQGTLVTVSS
VL: DIQMTQSPSSLSASVGDRVTITCRASSSVNFIHWYQQKPGKAPKPLISATSNLASGVPSRFSGSGSGTDFTLTISSLQPEDFATYYCQQWSSNPWTFGQGTKVEIK
notes: Tested as Fab; also called parent; parental Fab
B5: the “IC50, FRET-based H2-Opt blocking assay” value in [6] is about 0.39 nM. In addition, the Kd (as a rule, the free concentration of one partner at which half of the binding sites on the other are occupied at equilibrium, for simple one-to-one binding) in assay [7] was found to be 0.4 nM; in assay [8], 0.2 nM; in assay [10], 0.219 nM; in [11], 0.4 nM; in [12] it was 0.22 nM; in assay [13] it was 0.22 nM. For the same molecule, the Kd in assay [14] is 0.25 nM; in [15], 0.33 nM; in [16], 0.219 nM. For the same molecule, the koff (commonly a measure of how fast the partners let go of each other) in assay [7] stood at 0.00015 s⁻¹; in assay [8] it was 0.00012 s⁻¹; in [11], 0.00021 s⁻¹; in assay [12], 0.000158 s⁻¹; in [13], 0.000158 s⁻¹; in [14], 0.00016 s⁻¹. The molecule further gave a koff in assay [15] of 0.00014 s⁻¹. The kon (commonly the rate constant with which the complex forms) in assay [7] turned out to be 360000 M⁻¹ s⁻¹; in [8], 690000 M⁻¹ s⁻¹; in assay [11], 490000 M⁻¹ s⁻¹; in assay [12], 722000 M⁻¹ s⁻¹; in assay [13] it was 722000 M⁻¹ s⁻¹; in assay [14], 630000 M⁻¹ s⁻¹. In [15], the kon was found to be 430000 M⁻¹ s⁻¹. Besides, the “IC50 FRET (H2-Opt substrate cleavage)” value in [9] was 0.44 nM. Besides, the “IC90 FRET (H2-Opt substrate cleavage)” value in [9] turned out to be 1.87 nM. Also, the “Max inhibition (FRET H2-Opt assay)” value in assay [9] stood at 91.

B6: h15H6.v1 HC-L69I variant (Fab, V domains shown)
VH: EVQLVQSGAEVKKPGASVKVSCKASGYTFTDSEMHWVRQAPGQGLEWIGGVDPETDGAAYNQKFKGRATITADTSTSTAYLELSSLRSEDTAVYYCTRGYDYDYALDYWGQGTLVTVSS
VL: DIQMTQSPSSLSASVGDRVTITCRASSSVNFIHWYQQKPGKAPKPWISATSNLASGVPSRFSGSGSGTDFTLTISSLQPEDFATYYCQQWSSNPWTFGQGTKVEIK
notes: built as h15H6.v1
On to B6, for which the binding result in [4] and in assay [5] was “binds” throughout.

For the origin of these results see patent US20170145113A1 (Genentech, published 2017).
